Assay results reported in the domain aggregation screens of Martell et al. (2025).

Assay: soluble fraction after stress (log2 fold change); higher = more stays soluble; pooled small domains, quantitative proteomics
Conditions: stress: 50 degC
Procedure, shortened: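 Pooled custom libraries of small protein domains were each held under stress at 50°C. The read-out, high-throughput quantitative proteomics, tracked how much of each protein stayed soluble. This is reported as a base-two log fold change used to indicate aggregation propensity. Higher values mean more protein remains in solution.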

HMNYTQAQIDRANAVSLEDFLRTQGETLIKSGREYRWKEHDSLTVRGNKWFRHSQSKGGYPIDFVMEFTA
soluble fraction (log2): 0.0368

HMNYYYKDNQYWYVGFRYDERLVKEIKRFVGAGYNPENKEWYIPFTLPTVAPLQKWLHDNGFVEGMNYYP
soluble fraction (log2): -1.86

HMPAAFALLTDREREIAALIAQRLTNREIAEKLYLSEGSVKQYVNQLYAKLGIEGDTRTKRRRLAEQAK
soluble fraction (log2): 0.11

HMPAAKARTWQEATHAFQRDFLLETLRRARFNAADAADQLGLARPALYTTAKRLGLDLVAERQRWEAEAH
soluble fraction (log2): -0.173

HMPAAPVFLQKDLLDAGLIGQADSAARREKLGKILGIGYGNGKVMLQRLNSFGIERDAFEQAVQE
soluble fraction (log2): 0.0718

HMPAASDALAGELAQIARLDIAKLLAGDLSEADWSRITSATVQLSERHPDASDELTALVERIDTAYSARAT
soluble fraction (log2): 0.0455

HMPAEGWEASGDTWRYRQKDGSYITNAWVQDTDGKWYYFDESSLMVRNQTTSDGYYVGEDGVWTET
soluble fraction (log2): -0.395

HMPAELGVVVRNANLRSGPGTKYAIVGSAPAGTTVRIAGTNKAGDWYHLSSGRWIAAFLVDRN
soluble fraction (log2): -0.941

HMPAERLSMRKIYEILRLKYGHGLSNREVALSVSVSRSTVADYLLRAQAAGLSWPLPDGLDETGLEQRLFP
soluble fraction (log2): -2.02

HMPAFGALTLRQRDLVELIAQGLDNSQIAARLGLAEKTVRNHITMIFNKLEMENRSQVIVRARESGFGAVR
soluble fraction (log2): -1.53

HMPAKIIKKSFVYNPIHRDTEYLAQFLQGEGQVSASGDKLVYYGTVEDISRIKSVLQSVDTPS
soluble fraction (log2): 0.0363

HMPALATKDSVLDGRAEVVSYVRDTSVFYLRVRVPQKQGYRSRRIDGVSTLPEAITKALDTYMDLGT
soluble fraction (log2): -2.57

HMPALELLVESKKPLLIHGEKIAEDINLFDREKYFIDDELIRIVKEFPSLKIILEHVSSKYGAD
soluble fraction (log2): -1.5

HMPAMYKAERMNQILSILADQGDVDVGTLARQFGVSLVTIRKDLTYLESSGQLVRTHGGAIAVA
soluble fraction (log2): -0.767

HMPASVEYIRLAAEQMTGQQVTIIEQPGNYAFILRIHLNDIYSLDLAALRARIDELKPAHLTYTVEQYD
soluble fraction (log2): -2.71

HMPATTMMVVVDRDLPYGHVLTDRDVRLETRRATSPGASVAFTSIDPVLGQSLTRPLGAGTPVGRADLR
soluble fraction (log2): -0.155

HMPAVVEFDVKPRGEVLVDGIWYGRIPELREVELRPGRHHLRVQNAGHPSLDLVVTLEPGERMTVTHTFA
soluble fraction (log2): -0.102

HMPDAENFRYRVPYTTEQNRLQYYEGDIRAENADKARDQVMQDAQKYFAQNTAFTPNYIDTDIISLD
soluble fraction (log2): 0.034

HMPDFAENAVYGKQREDSLYAHAYKHFQLGDTTTVRAAEHLSAEIYPLGQHRPKFMFLNAVTR
soluble fraction (log2): 0.0766

HMPDITAAVARTLQALRADRGWSLDQLAARSGVSKGVLVALEQGRSNPNLATLARIGDAFGVPVTLLVDL
soluble fraction (log2): -0.543

HMPDPHSEARNIVLNQLNFMPRSRKELETALAKRNIEADVAKIVLDRFEEIGMVDDAAYAEL
soluble fraction (log2): 0.159

HMPDPLYLINGKIVNKSDFNNIDPRSIQSIEVLKANKALEAFGNDGKNGVIKITLKSSNDQM
soluble fraction (log2): 0.0749

HMPEEGPSEDGNSFTAKFKLGSDVQGAMEQADAAAKAGLQDAGKGTGQITSRAQVGGYIYSTATA
soluble fraction (log2): 0.0661

HMPEIFYRKIHRTDHDQIALDAEMIRLLIAIDEKKSLSQIAAEVQMEPMALKKNLGKLIQLGLVEPIK
soluble fraction (log2): 0.137

HMPELSNNLDRDKVALKNFNESLKDGLTPAEAYANHLTNVSKAAQEAARQSNGLPVDIDKYHNSQLAASMA
soluble fraction (log2): 0.273

HMPEMAIRTLRLRNQRGAAVAAEWSRITASLLELRQVEFVNPVDQLIVLKGPEPWAGVAEELVRQLDV
soluble fraction (log2): -0.849

HMPEQLLNTRIPLEFAGRRFDASLAELFPDYSRSRLAAWIKDGAARLDGETVAPRHTVRGGEQVEILVRM
soluble fraction (log2): -0.238

HMPERLTYVHPDGAEPMRADKALAAFLSGRISRSRLLGSFSAGKVMAGGKPVEKKLLLRAGDALEVELPEP
soluble fraction (log2): 0.139

HMPERMLEPLLNGNEIMKVTQLQPGPKVGLIRDALLQAQISGDVTDTESAKAFVQDYAKRNI
soluble fraction (log2): 0.06

HMPESETIMVDVKGAVQSEGVYELPSTARVNDAIEAAGGFSDQADKKSVNLAQKLSDEAVVYVASQGENV
soluble fraction (log2): 0.207

HMPEVTMSYSARNQVVSFSKATQYEIVDEFGTVVLRGVGNQATLRYLSRGDYFVNFGAGTEVLKK
soluble fraction (log2): 0.000609

HMPEVYSFEVNEGAAGKRLDIFLSGEIEGLTRSFIQKLISEGMATVNQEPPRASYRVKTRDLVELQIPDPE
soluble fraction (log2): -0.488

HMPFDWSAFDWKGWADEALAIIKTANQDQMNKWTEDNEKIIVQAETAAPDIYKTVGDEYDKKMESFN
soluble fraction (log2): 0.11

HMPFESEMKHWIHLFAHELNLKVSDKYTQKIIEIFGNNFSEIFNEMSKSSLVSSNEKDLLNALEKSGNIH
soluble fraction (log2): -0.678

HMPFGIYGGKVSSLDDLKDKAAVLVPNDVSNEARALLLLEAQGLIKLKEGVGLEATRNDIVEN
soluble fraction (log2): ≥ 0.62

HMPFTLDGVNEGSRNDQAARMSGYLISKNLNMDFIKFFMQSWNRQNSPPLSQREINSVVDNVKRTHDRKNK
soluble fraction (log2): -1.18

HMPGKVSDAGATAKDNRLFLEAVFWRVRTGSPWRDLPPAFGHWNSQFRRFRRWAKAGVFESLFNA
soluble fraction (log2): 0.0893
